Data reported in paper PMC2952587, “Identification of the Essential Brucella melitensis Porin Omp2b as a Suppressor of Bax-Induced Cell Death in Yeast in a Genome-Wide Screening” (PLoS ONE, 2010).

Molecular target: the molecule itself
Experiment: semi-denaturing gel with Western blot

B1: Brucella melitensis porin Omp2b (natural protein)
chain: ADAIVAPEPEAVEYVRVCDAYGAGYFYIPGTEICLRVHGYVRYDVKGGDDVYSGTDRNGWDKGARFALRVSTGSETELGTLKTFTELRFNYAANNSGVDGKYGNETSSGTVMEFAYIQLGGLRVGIDESEFHTFTGYLGDVINDDVISAGSYRTGKISYTFTGGNGFSAVIALEQGGDNDGGYTGTTNYHIDGYMPDVVGGLKYAGGWGSIAGVVAYDSVIEEWAAKVRGDVNITDQFSVWLQGAYSSAATPDQNYGQWGGDWAVWGGLKYQATQKAAFNLQAAHDDWGKTAVTANVAYELVPGFTVTPEVSYTKFGGEWKNTVAEDNAWGGIVRFQRSF
notes: also called BMEI1305
  stoichiometry N: 3
